To fix the notation:
B1: BsAb7 (bispecific antibody)
chain 1: QVQLVESGGGVVQPGGSLRLSCAASGFVLRVNTVSWYRQAPGKQRELVALITSESNEYYDDSVKGRFTISRDNAKNTIYLHMNSLKPEDTGVYFCNFITTWGQGTQVTVSSGGGGSGGGGSGGGGSQVQLVESGGGVVQPGGSLRLSCAASGFVLRVNTVSWYRQAPGKQRELVALITSESNEYYDDSVKGRFTISRDNAKNTIYLHMNSLKPEDTGVYFCNFITTWGQGTQVTVSSDKTHTCPPCPAPESTRGPSVFLFPPKPKDTLMISRTPEVTCVVVDVSHEDPEVKFNWYVDGVEVHNAKTKPREEQYNSTYRVVSVLTVLHQDWLNGKEYKCKVSNKALPAPIEKTISKAKGQPREPQVCTLPPSRDELTKNQVSLSCAVKGFYPSDIAVEWESNGQPENNYKTTPPVLDSDGSFFLVSKLTVDKSRWQQGNVFSCSVMHEALHNHYTQKSLSLSPGK
chain 2: EVQLVESGGGLVQPGRSLRLSCAASGFTFNTYAMNWVRQAPGKGLEWVARIRSKYNNYATYYADSVKDRFTISRDDSKSIAYLQMNSLKTEDTAVYYCVRHGNFGNSYVSWFAYWGQGTLVTVSSASTKGPSVFPLAPSSKSTSGGTAALGCLVKDYFPEPVTVSWNSGALTSGVHTFPAVLQSSGLYSLSSVVTVPSSSLGTQTYICNVNHKPSNTKVDKKVEPKSCDKTHTCPPCPAPESTRGPSVFLFPPKPKDTLMISRTPEVTCVVVDVSHEDPEVKFNWYVDGVEVHNAKTKPREEQYNSTYRVVSVLTVLHQDWLNGKEYKCKVSNKALPAPIEKTISKAKGQPREPQVYTLPPCRDELTKNQVSLWCLVKGFYPSDIAVEWESNGQPENNYKTTPPVLDSDGSFFLYSKLTVDKSRWQQGNVFSCSVMHEALHNHYTQKSLSLSPGK
chain 3: QTVVTQEPSLTVSPGGTVTLTCRSSTGAVTTSNYANWVQQKPGQAPRGLIGGTNKRAPGVPARFSGSLLGGKAALTLSGVQPEDEAEYFCALWYSNLWVFGGGTKLTVLGQPKAAPSVTLFPPSSEELQANKATLVCLISDFYPGAVTVAWKADSSPVKAGVETTTPSKQSNNKYAASSYLSLTPEQWKSHRSYSCQVTHEGSTVEKTVAPTECS
B2: BsAb8 (bispecific antibody)
chain 1: EVQLVESGGGLVQPGGSLRLSCAASGRSFSSFQMGWFRQAPGKEREFVAASGWSGGPTYYWDSVIGRFTISTDNSKNTLYLQMNSLRAEDTAVYYCYEDRVLSGRPVRYWGQGTLVTVSSGGGGSGGGGSGGGGSEVQLVESGGGLVQPGGSLRLSCAASGRSFSSFQMGWFRQAPGKEREFVAASGWSGGPTYYWDSVIGRFTISTDNSKNTLYLQMNSLRAEDTAVYYCYEDRVLSGRPVRYWGQGTLVTVSSDKTHTCPPCPAPESTRGPSVFLFPPKPKDTLMISRTPEVTCVVVDVSHEDPEVKFNWYVDGVEVHNAKTKPREEQYNSTYRVVSVLTVLHQDWLNGKEYKCKVSNKALPAPIEKTISKAKGQPREPQVCTLPPSRDELTKNQVSLSCAVKGFYPSDIAVEWESNGQPENNYKTTPPVLDSDGSFFLVSKLTVDKSRWQQGNVFSCSVMHEALHNHYTQKSLSLSPGK
chain 2: B1 chain 2
chain 3: B1 chain 3
B3: MAb2 (antibody, V domains shown)
VH: EVQLVESGGGLVQPGGSLRLSCAASGFTFNDYTMDWVRQAPGKGLEWVADVNPNSGSSIYNERFKGRFTLSVDRSKNTLYLQMNSLRAEDTAVYYCARNLGPSFYFDYWGQGTLVTVSS
VL: DIQMTQSPSSLSASVGDRVTITCRASQNINNWLTWYQQKPGKAPKLLIYAASSRQTGVPSRFSGSGSGTDFTLTISSLQPEDFATYYCQQYAKLPVTFGQGTKVEIK
notes: The constant region of MAb2 is not known (human IgG1 or an IgG1 variant); also called 对照单克隆抗体; C6G9+L1A7 (inferred)

Data on three molecules can be found in patent CN114989305A (BEIJING WISDOMAB BIOTECHNOLOGY CO LTD, dated 2022).

The Kd is the constant that tells how readily two partners part at equilibrium. A lower Kd goes with higher affinity.

This assay concerns the target T1, HER2-His (Homo sapiens (Human), UniProt P04626 23-510).
T1 construct: Recombinant protein made in HEK293 cells; also called 重组的HER2-His; 重组HER2胞外区D1D2D3部分
The assay can be described thus: SPR (Biacore X100), antibody captured by anti-Fc on CM5 chip, HER2-His as analyte, single cycle. Background: SPR reads the build-up and loss of mass on a sensor chip optically.
Regarding B1, the affinity, expressed as Kd, was 6.79 nM. The molecule B2 displayed a Kd of 9.69 nM. The molecule B3 showed a Kd of 5.31 nM.
